The values that follow come from publication PMC4342785 (Nature, 2015).

In the assay the target is T1, mouse core RAG1 (384–1008aa) (mouse, UniProt P15919 384-1008).
T1 sequence (looked up): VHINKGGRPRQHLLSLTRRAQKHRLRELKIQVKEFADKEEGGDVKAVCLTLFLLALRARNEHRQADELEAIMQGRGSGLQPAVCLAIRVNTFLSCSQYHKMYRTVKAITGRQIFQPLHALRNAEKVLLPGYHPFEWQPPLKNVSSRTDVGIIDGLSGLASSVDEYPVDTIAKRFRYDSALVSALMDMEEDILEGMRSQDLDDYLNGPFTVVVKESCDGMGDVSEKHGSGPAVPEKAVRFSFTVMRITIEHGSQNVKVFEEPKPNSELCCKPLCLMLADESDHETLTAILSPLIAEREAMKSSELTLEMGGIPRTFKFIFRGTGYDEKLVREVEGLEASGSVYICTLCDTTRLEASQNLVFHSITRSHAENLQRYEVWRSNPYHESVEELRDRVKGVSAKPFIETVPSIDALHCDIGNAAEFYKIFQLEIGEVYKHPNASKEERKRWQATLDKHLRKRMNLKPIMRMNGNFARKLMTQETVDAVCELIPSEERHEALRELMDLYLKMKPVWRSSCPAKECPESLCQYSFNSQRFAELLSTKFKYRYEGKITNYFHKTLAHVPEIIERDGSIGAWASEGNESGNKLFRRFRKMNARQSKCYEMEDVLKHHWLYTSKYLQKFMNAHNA
Put plainly: crystal structure.

B1: mouse core RAG2 (1–387aa), M1V (domain or fragment, UniProt P21784 1-387, looked up)
chain: VSLQMVTVGHNIALIQPGFSLMNFDGQVFFFGQKGWPKRSCPTGVFHFDIKQNHLKLKPAIFSKDSCYLPPLRYPATCSYKGSIDSDKHQYIIHGGKTPNNELSDKIYIMSVACKNNKKVTFRCTEKDLVGDVPEPRYGHSIDVVYSRGKSMGVLFGGRSYMPSTQRTTEKWNSVADCLPHVFLIDFEFGCATSYILPELQDGLSFHVSIARNDTVYILGGHSLASNIRPANLYRIRVDLPLGTPAVNCTVLPGGISVSSAILTQTNNDEFVIVGGYQLENQKRMVCSLVSLGDNTIEISEMETPDWTSDIKHSKIWFGSNMGNGTIFLGIPGDNKQAMSEAFYFYTLRCSEEDLSEDQKIVSNSQTSTEDPGDSTPFEDSEEFCFS
Turning to B1, the binding result is “binds”.
